# Data as given in article doi:10.64898/2025.12.03.692196.
# How the values were obtained:
# [1] = target: YRDC_(A41V), GAMOS-associated variant of the ΔN43 construct (human); test: mass photometry
# [2] = target: YRDC_(A41V), GAMOS-associated variant of the ΔN43 construct (human); test: native gel or EMSA
# [3] = target: YRDC_(I178T), GAMOS-associated variant of the ΔN43 construct (human); test: mass photometry
# [4] = target: YRDC_(ΔL222), GAMOS-associated variant of the ΔN43 construct (human); test: mass photometry
# [5] = target: YRDC_(ΔL222), GAMOS-associated variant of the ΔN43 construct (human); test: native gel or EMSA
# [6] = target: human YRDC lacking the N-terminal 43 residues (ΔN43 construct) (human); test: mass photometry
# [7] = target: human YRDC lacking the N-terminal 43 residues (ΔN43 construct) (human); test: native gel or EMSA
# [8] = target: human YRDC lacking the N-terminal 43 residues (ΔN43 construct) (human); test: native MS
substance,measurement,setting,value
"YRDC_(A41V), GAMOS-associated variant of the ΔN43 construct (enzyme)",tetramer fraction,[1],24%
same,trimer fraction,[1],28%
same,stoichiometry N,[2],2
"YRDC_(I178T), GAMOS-associated variant of the ΔN43 construct (enzyme)",dimer fraction,[3],19%
"YRDC_(ΔL222), GAMOS-associated variant of the ΔN43 construct (enzyme)",tetramer fraction,[4],27%
same,trimer fraction,[4],44%
same,stoichiometry N,[5],2
human YRDC lacking the N-terminal 43 residues (ΔN43 construct) (enzyme),stoichiometry N,[6],2
same,stoichiometry N,[7],2
same,stoichiometry N,[8],2
